The values below come from the Human Domainome abundance scans (Beltran et al. 2025).

B1: Pyruvate dehydrogenase protein X component, mitochondrial, residues 181 to 227; numbered along this chain, O00330 (parent)
chain: RFRLSPAARNILEKHSLDASQGTATGPRGIFTKEDALKLVQLKQTGK

± gives the uncertainty stated by the source.

In this data set the parent is B1. Briefly: abundance fitness (aPCA) (normalised: wild type 0, dead -1); higher = more abundant; growth selection in yeast, the domain comes from the species named. To be noted: Homo sapiens.
Consider RFRLSPAARNILEKHSLDASQGTATGPRGIFTLEDALKLVQLKQTGK [K33L], for which the abundance fitness was -0.379 ± 0.062.

RFRLSPAARNILEKHSLDASQGTATGPRGIFTFEDALKLVQLKQTGK [K33F]: the abundance fitness is -0.623 ± 0.073.

Turning to RFRLSPAARNILEKHSLDASQGTATGPRGIFTIEDALKLVQLKQTGK [K33I], the abundance fitness worked out at 0.047 ± 0.16.

For RFRLSPAARNILEKHSLDASQGTATGPPGIFTKEDALKLVQLKQTGK [R28P], the abundance fitness was -0.408 ± 0.096.

For the variant RFRLSPAARNILEKHSLDASQGTATGPFGIFTKEDALKLVQLKQTGK [R28F], the abundance fitness is -0.085 ± 0.073.

Take RFRLSPAARNILEKHSLDASQGTATGPYGIFTKEDALKLVQLKQTGK [R28Y]: the abundance fitness was -0.03 ± 0.064.

As to RFRLSPAARNILEKHSLDASQGTATGPDGIFTKEDALKLVQLKQTGK [R28D], the abundance fitness was 0.259 ± 0.1.

Consider RFRLSPAARNILEKHSLDASQGTATGPAGIFTKEDALKLVQLKQTGK [R28A], for which the abundance fitness is -0.119 ± 0.06.

With RFRLSPAARNILEKHSLDASQGTATGPEGIFTKEDALKLVQLKQTGK [R28E], the abundance fitness is 0.06 ± 0.09.

Turning to RFRLSPAARNILEKHSLDASQGTATGPHGIFTKEDALKLVQLKQTGK [R28H], the abundance fitness is -0.202 ± 0.11.

Turning to RFRLSPAARNILEKHSLDASQGTATGPLGIFTKEDALKLVQLKQTGK [R28L], the abundance fitness was -0.161 ± 0.045.

With RFRLSPAARNILEKHSLDASQGTATGPNGIFTKEDALKLVQLKQTGK [R28N], the abundance fitness was 0.285 ± 0.088.

With RFRLSPAARNILEKHSLDASQGTATGPCGIFTKEDALKLVQLKQTGK [R28C], the abundance fitness was -0.072 ± 0.051.

In the case of RFRLSPAARNILEKHSLDASQGTATGPVGIFTKEDALKLVQLKQTGK [R28V], the abundance fitness is -0.456 ± 0.068.

RFRLSPAARNILEKHSLDASQGTATGPWGIFTKEDALKLVQLKQTGK [R28W]: the abundance fitness is -0.255 ± 0.057.

Regarding RFRLSPAARNILEKHSLDASQGTATGPSGIFTKEDALKLVQLKQTGK [R28S], the abundance fitness was -0.146 ± 0.072.

For RFRLSPAARNILEKHSLDASQGTATGPMGIFTKEDALKLVQLKQTGK [R28M], the abundance fitness was -0.071 ± 0.072.

Consider RFRLSPAARNILEKHSLDASQGTATGPQGIFTKEDALKLVQLKQTGK [R28Q], for which the abundance fitness is -0.314 ± 0.11.

As for RFRLSPAARNILEKHSLDASQGTATGPIGIFTKEDALKLVQLKQTGK [R28I], the abundance fitness is -0.936 ± 0.15.

As for RFRLSPAARNILEKHSLDASQGTATGPTGIFTKEDALKLVQLKQTGK [R28T], the abundance fitness is -0.281 ± 0.063.

As to RFRLSPAARNILEKHSLDASQGTATGPKGIFTKEDALKLVQLKQTGK [R28K], the abundance fitness turned out to be 0.033 ± 0.071.

As for RFRLSPAARNILEKHSLDASQGTATGPRGIHTKEDALKLVQLKQTGK [F31H], the abundance fitness is -0.222 ± 0.11.

As to RFRLSPAARNILEKHSLDASQGTATGPRGIPTKEDALKLVQLKQTGK [F31P], the abundance fitness is -0.206 ± 0.076.

Regarding RFRLSPAARNILEKHSLDASQGTATGPRGIRTKEDALKLVQLKQTGK [F31R], the abundance fitness was -0.455 ± 0.063.

Regarding RFRLSPAARNILEKHSLDASQGTATGPRGINTKEDALKLVQLKQTGK [F31N], the abundance fitness is -0.084 ± 0.11.

Consider RFRLSPAARNILEKHSLDASQGTATGPRGIVTKEDALKLVQLKQTGK [F31V], for which the abundance fitness was -0.349 ± 0.065.

Take RFRLSPAARNILEKHSLDASQGTATGPRGIWTKEDALKLVQLKQTGK [F31W]: the abundance fitness was -0.675 ± 0.14.

As for RFRLSPAARNILEKHSLDASQGTATGPRGISTKEDALKLVQLKQTGK [F31S], the abundance fitness is -0.306 ± 0.068.

For the variant RFRLSPAARNILEKHSLDASQGTATGPRGIATKEDALKLVQLKQTGK [F31A], the abundance fitness is -0.451 ± 0.087.

In the case of RFRLSPAARNILEKHSLDASQGTATGPRGIETKEDALKLVQLKQTGK [F31E], the abundance fitness is -0.087 ± 0.071.

On to RFRLSPAARNILEKHSLDASQGTATGPRGICTKEDALKLVQLKQTGK [F31C], for which the abundance fitness is -0.236 ± 0.067.

On to RFRLSPAARNILEKHSLDASQGTATGPRGIQTKEDALKLVQLKQTGK [F31Q], for which the abundance fitness is -0.424 ± 0.12.

Regarding RFRLSPAARNILEKHSLDASQGTATGPRGIGTKEDALKLVQLKQTGK [F31G], the abundance fitness was -0.195 ± 0.072.

As to RFRLSPAARNILEKHSLDASQGTATGPRGILTKEDALKLVQLKQTGK [F31L], the abundance fitness was -0.412 ± 0.046.

Regarding RFRLSPAARNILEKHSLDASQGTATGPRGITTKEDALKLVQLKQTGK [F31T], the abundance fitness was -0.171 ± 0.093.

Turning to RFRLSPAARNILEKHSLDASQGTATGPRGIKTKEDALKLVQLKQTGK [F31K], the abundance fitness was -0.423 ± 0.12.

Turning to RFRLSPAARNILEKHSLDASQGTATGPRGIYTKEDALKLVQLKQTGK [F31Y], the abundance fitness was -0.335 ± 0.071.

Consider RFRLSPAARNILEKHSLDASQGTATGPRGIMTKEDALKLVQLKQTGK [F31M], for which the abundance fitness was -0.38 ± 0.082.

As to RFRLSPAARNILEKHSLDASQGTATGPRIIFTKEDALKLVQLKQTGK [G29I], the abundance fitness is -0.349 ± 0.11.

In the case of RFRLSPAARNILEKHSLDASQGTATGPRMIFTKEDALKLVQLKQTGK [G29M], the abundance fitness is -0.447 ± 0.1.

Consider RFRLSPAARNILEKHSLDASQGTATGPRNIFTKEDALKLVQLKQTGK [G29N], for which the abundance fitness was -0.395 ± 0.11.

Take RFRLSPAARNILEKHSLDASQGTATGPRYIFTKEDALKLVQLKQTGK [G29Y]: the abundance fitness was -1.01 ± 0.18.

Turning to RFRLSPAARNILEKHSLDASQGTATGPRLIFTKEDALKLVQLKQTGK [G29L], the abundance fitness was -0.609 ± 0.049.

In the case of RFRLSPAARNILEKHSLDASQGTATGPRTIFTKEDALKLVQLKQTGK [G29T], the abundance fitness is -0.788 ± 0.082.

Take RFRLSPAARNILEKHSLDASQGTATGPRFIFTKEDALKLVQLKQTGK [G29F]: the abundance fitness was -1.05 ± 0.28.

Turning to RFRLSPAARNILEKHSLDASQGTATGPRRIFTKEDALKLVQLKQTGK [G29R], the abundance fitness is -0.526 ± 0.052.

With RFRLSPAARNILEKHSLDASQGTATGPRHIFTKEDALKLVQLKQTGK [G29H], the abundance fitness is -0.773 ± 0.15.

In the case of RFRLSPAARNILEKHSLDASQGTATGPRWIFTKEDALKLVQLKQTGK [G29W], the abundance fitness is -0.892 ± 0.057.

For the variant RFRLSPAARNILEKHSLDASQGTATGPRSIFTKEDALKLVQLKQTGK [G29S], the abundance fitness is -0.435 ± 0.069.

With RFRLSPAARNILEKHSLDASQGTATGPRPIFTKEDALKLVQLKQTGK [G29P], the abundance fitness is -0.569 ± 0.071.

On to RFRLSPAARNILEKHSLDASQGTATGPRCIFTKEDALKLVQLKQTGK [G29C], for which the abundance fitness was -0.706 ± 0.12.

With RFRLSPAARNILEKHSLDASQGTATGPRQIFTKEDALKLVQLKQTGK [G29Q], the abundance fitness is -0.418 ± 0.051.

With RFRLSPAARNILEKHSLDASQGTATGPRVIFTKEDALKLVQLKQTGK [G29V], the abundance fitness is -0.807 ± 0.067.

Take RFRLSPAARNILEKHSLDASQGTATGPREIFTKEDALKLVQLKQTGK [G29E]: the abundance fitness is -0.226 ± 0.063.

For the variant RFRLSPAARNILEKHSLDASQGTATGPRDIFTKEDALKLVQLKQTGK [G29D], the abundance fitness is -0.101 ± 0.11.
